This is an account of results in patent US5993803A, “Method of reducing the severity of host vs graft reaction by down-regulating hsp60 autoimmunity” (Yeda Research and Development Co., Ltd., priority 1996, dated 1999).

Entries after “also recorded” stand apart in the source; their conditions may differ.

Experiment [1] has as its system spleen cells of treated NOD or C57BL mice stimulated with irradiated BALB/c spleen cells. The experiment can be described thus: Mixed lymphocyte reaction (MLR) of spleen cells from treated, grafted mice with irradiated BALB/c spleen cells. It counts as cell-based, mouse. The source says:
T cells reactive to hsp60 and other hsp molecules have been isolated from cardiac allografts (Moliterno et al., 1995) as well as from other inflammatory lesions (Selmaj et al., 1991; Mor et al., 1992). […] It is theorized that the constitutive hyper-expression of hsp60 in the donor Eα-hsp60 skin amplifies the activation of anti-hsp60 autoimmune T cells at the site and enhance the local immune response by adding pro-inflammatory (TH1-type) cytokines, such as INFγ (Finkelman et al., 1990), to the allograft reaction, thereby inciting and abetting other T cells responsive to the foreign antigens. Conversely, hsp60 autoimmune T cells that have been activated to produce anti-inflammatory cytokines of the TH2-type, such as IL-10, should serve to shut down the effector immune reaction by a form of by-stander suppression (Weiner et al., 1994). To test whether treatment with hsp60 peptides might modify the cytokine response, NOD or C57BL mice were treated with hsp60 or with hsp60 peptide p12. Control mice were untreated or were treated with saline emulsified in IFA. The mice were grafted with BALB/c skin grafts and twenty days later, just at the beginning of graft rejection in the control mice, groups of 5-10 mice were sacrificed and their spleen cells assayed individually in a standard mixed lymphocyte reaction (MLR) with irradiated BALB/c spleen cells as stimulators (Lohse et al., 1990). […] However, the MLR media were also tested for the presence of the TH1 cytokine IFNγ and the TH2 cytokine IL-10.

Experiment [2] has as its system BALB/c (H-2^d) skin allograft rejection in C57BL/6 (H-2^b) mice. The experiment is classed as in vivo, mouse. As to conditions: C57BL/6 recipients; 50 μg in incomplete Freund's adjuvant s.c. 2 weeks before transplantation; Wilcoxon test; FIG. 3A.
Procedure: (§1) FIGS. 3A and 3B show the effects of treating C57BL6 (H-2^b) mice (FIG. 3A) or wild-type NOD (H-2^g7) mice (FIG. 3B) with hsp60 (50 μg in incomplete Freund's adjuvant; Sigma) administered subcutaneously in the back 2 weeks before transplantation of BALB/c (H-2^d) skin (Elias et al., 1994; Elias et al., 1995). […] Control mice were untreated (open squares) or treated with incomplete Freund's adjuvant containing 50 μg of recombinant glutathione transferase (open diamonds).
Experiment [3] deals with BALB/c (H-2^d) skin allograft rejection in wild-type NOD (H-2^g7) mice. The experiment is classed as in vivo, mouse. As to conditions: wild-type NOD recipients; 50 μg in incomplete Freund's adjuvant s.c. 2 weeks before transplantation; Wilcoxon test; FIG. 3B.
Procedure: as §1
Wild-type NOD (H-2^g7) mice were treated with various hsp60 peptides in incomplete Freund's adjuvant. […] Control mice were untreated (open square) or were treated with incomplete Freund's adjuvant containing 50 μg of peptide p11, a control non-immunogenic hsp60 peptide (closed diamond). […] Each group contained 10-12 mice.
Patches of dorsal skin of one cm^2 were removed from anesthetized recipient mice treated with Nembutal 6 mg/ml, 0.25 ml per mouse and replaced by the donor skin grafts. Histoacryl (B. Braun Meleungen AG, D-34209 Melsungen, Germany) was applied around the grafts and Nobecutan (ASTR, Astra Tech, POB 13, Glos G15, UK) was sprayed over them.

B1: hsp60: Recombinant human 60 kDa heat shock protein, SEQ ID NO:1 (protein, UniProt P10809 27-573, looked up)
60 kDa heat shock protein, …: AKDVKFGADARALMLQGVDLLADAVAVTMGPKGRTVIIEQSWGSPKVTKDGVTVAKSIDLKDKYKNIGAKLVQDVANNTNEEAGDGTTTATVLARSIAKEGFEKISKGANPVEIRRGVMLAVDAVIAELKKQSKPVTTPEEIAQVATISANGDKEIGNIISDAMKKVGRKGVITVKDGKTLNDELEIIEGMKFDRGYISPYFINTSKGQKCEFQDAYVLLSEKKISSIQSIVPALEIANAHRKPLVIIAEDVDGEALSTLVLNRLKVGLQVVAVKAPGFGDNRKNQLKDMAIATGGAVFGEEGLTLNLEDVQPHDLGKVGEVIVTKDDAMLLKGKGDKAQIEKRIQEIIEQLDVTTSEYEKEKLNERLAKLSDGVAVLKVGGTSDVEVNEKKDRVTDALNATRAAVEEGIVLGGGCALLRCIPALDSLTPANEDQKIGIEIIKRTLKIPAMTIAKNAGVEGSLIVEKIMQSSSEVGYDAMAGDFVNMVEKGIIDPTKVVRTALLDAAGVASLLTTAEVVVTEIPKEEKDPGMGAMGGMGGGMGGGMF
With B1, the “T-cell proliferation by thymidine incorporation in MLR, treated vs control groups” value in experiment [1] (spleen cells taken 20 days after BALB/c skin grafting, hsp60 and p12 treated mice reported together) is on record as “no significant differences”. In addition, the “IL-10 produced in MLR media” value in experiment [1] (spleen cells taken 20 days after grafting, hsp60 and p12 treated mice pooled, control mice 3.5±0.6, p=0.004) turned out to be 8 ± 1.4 ng/mL. In addition, the “IFNγ produced in MLR media” value in experiment [1] (spleen cells taken 20 days after grafting, hsp60 and p12 treated mice pooled, control mice 9.25±1.7, p=0.002) came out at 3.13 ± 1.4 ng/mL. Further, the “survival of BALB/c skin grafts (delay in skin allograft rejection)” value in experiment [2] was “significantly prolonged survival; also recorded: significant”; in experiment [3], “delayed rejection; also recorded: significant”.
